According to US9664676B2, “RNA sequences that induce fluorescence of small molecule fluorophores” (Cornell University, priority 2013, dated 2017):

What was measured:
[1] = Thermostability measurements of Spinach RNAs with DFHBI; assay type: physicochemical; conditions: fluorescence of RNA-DFHBI complex in vitro, 20-60 °C; ±s.e.m.
Method: Thermostability Measurements: Spinach or Spinach2 (1 μM) was incubated in 20 mM HEPES pH 7.4, 100 mM KCl, 1 mM MgCl2 and 10 μM DFHBI. Fluorescence values were recorded in 1° C. increments from 20° C. to 60° C., with a 5-min incubation at each temperature to allow for equilibration. Fluorescence measurements were performed using a PerkinElmer LS-55 fluorescence spectrometer using the following instrument parameters: excitation wavelength, 460 nm; emission wavelength, 501 nm; slit widths, 10 nm. Curves were fitted using the Boltzmann sigmoidal equation in GraphPad Prism 5 software. Values presented are mean and s.e.m. from three independent measurements.

[2] = Folding assay (fraction of RNA folded, DFHBI); assay type: physicochemical
Method: Folding Assay: The folding assay involves measurement of fluorescence under two conditions, one in which RNA is in excess relative to DFHBI, and one in which the DFHBI is in excess relative to RNA. As Spinach and DFHBI form a 1:1 stoichiometric complex, the maximum amount of complex that can be formed is determined by the limiting component. In the first condition, the fluorescence was determined by incubation of 0.1 μM DFHBI and 100-fold excess (10 μM) Spinach. This value was used to define the fluorescence of 0.1 μM Spinach-DFHBI complex. It was assumed that even if nearly all Spinach is misfolded or unfolded, there will be enough properly folded Spinach to stoichiometrically bind 0.1 μM DFHBI. This was confirmed by measuring fluorescence after doubling the RNA to 20 μM, which caused no increase in fluorescence. In the second condition, the fluorescence obtained using 10 μM DFHBI and 0.1 μM Spinach was measured. In theory, up to 0.1 μM Spinach-DFHBI can form if all the Spinach is folded. However, if a portion of Spinach is unfolded, the fluorescence will be proportionately less than the fluorescence of 0.1 μM Spinach-DFHBI. Thus, this approach can reveal the fraction of Spinach that is folded under diverse conditions.
Fluorescence was measured for each RNA under the following conditions: (i) 0.1 μM RNA and 10 μM DFHBI, and (ii) 0.1 μM DFHBI and 10 μM RNA. For each condition, the signal from DFHBI without RNA was subtracted from each signal. Fluorescence was measured in 20 mM HEPES pH 7.4, 100 mM KCl and 1 mM MgCl2 at the designated temperature. Fluorescence measurements were performed using a PerkinElmer LS-55 fluorescence spectrometer using the following instrument parameters: excitation wavelength, 460 nm; emission wavelength, 501 nm; slit widths, 10 nm. Signal from the first condition (limiting RNA) was divided by the signal from the second condition (limiting dye) to determine the fraction folded.

[3] = Magnesium dependence of aptamer fluorescence; assay type: physicochemical
Method: To measure magnesium dependence 1 μM RNA was incubated with 10 μM 1T in 40 mM HEPES pH 7.4, 100 mM KCl buffer with different concentrations of MgCl2 and then fluorescence emission was measured on a plate reader.

E. coli = assay: Whole-cell fluorescence measurements of E. coli expressing Spinach or Spinach2; assay type: cell-based, Escherichia coli
Method: Cloning Spinach2 for Expression in E. coli: Spinach and Spinach2 were PCR-amplified with primers containing the EagI restriction sites on both the 5′ and 3′ ends of the Spinach sequence.
Whole-Cell Fluorescence Measurements of E. coli: BL21 cells were transformed to harbor either pET28c-tRNA-Spinach or pET28c-tRNA-Spinach2, and grown in Luria broth with 100 μg/ml kanamycin to OD600 0.4 at room temperature. The cells were then induced with addition of 1 mM IPTG for 2 h at room temperature. After induction, cells were normalized for cell density and split into two aliquots. One aliquot per sample was incubated at room temperature, and the other was incubated for 20 min at 37° C. Cells were then measured for total fluorescence using a Tecan Safirell plate reader with 460±10 nm excitation and emission was recorded at 510±10 nm. Data shown represent mean and s.e.m. values for three independent experiments.

[4] = In vitro fluorescence (brightness) of Spinach RNAs, mutants and flanked/fused constructs with DFHBI; assay type: biochemical; conditions: for fold brighter than the same construct fused to Spinach: in vitro
Source text: Preparation and Analysis of Spinach and Spinach Mutants: RNAs were created by using the appropriate single-stranded DNA templates (Integrated DNA Technologies) and PCR amplification using primers that included a 5′ T7 promoter sequence to generate double-stranded DNA templates. PCR products were then purified with PCR purification columns (Qiagen) and used as templates for in vitro T7 transcription reactions (Epicentre) as described previously (Paige et al., “RNA mimics of green fluorescent protein,” Science 333: 642-646 (2011), which is hereby incorporated by reference in its entirety). RNA was purified using ammonium acetate precipitation, and quantified using both absorbance values and the Riboquant Assay kit (BD Biosciences). Photophysical characterization of Spinach2 was carried out as previously described (Paige et al., “RNA mimics of green fluorescent protein,” Science 333: 642-646 (2011), which is hereby incorporated by reference in its entirety).
Preparation and In Vitro Analysis of Flanked Spinach and Spinach2 Constructs: Spinach and Spinach2 constructs flanked on either side by 50 base pairs were generated by PCR. For Spinach, the following primers were used:
The 50-base-pair sequences were taken from the human β-actin 3′ untranslated region. Both forward primers encode the T7 RNA polymerase promoter for in vitro transcription. 5S-Spinach and 5S-Spinach2 were amplified by PCR from pAV-5S-Spinach and pAV-5S-Spinach2, respectively, using the following primers: […]
PCR products were used as templates for in vitro transcription by Ampliscribe T7 RNA polymerase as previously described (Paige et al., “RNA mimics of green fluorescent protein,” Science 333: 642-646 (2011), which is hereby incorporated by reference in its entirety). Fluorescence measurements were recorded for 0.1 μM RNA in the presence of 10 μM DFHBI in buffer composed of 20 mM HEPES pH 7.4, 100 mM KCl and […] as described above.
Next, systematic mutagenesis was carried out to identify thermostable Spinach mutants with improved folding. Because elevated G+C content can lead to stable misfolded structures (Kiliszek et al., “Crystal Structures of CGG RNA Repeats with Implications for Fragile X-Associated Tremor Attaxia Syndrome,” Nuc. Acids Res. 39:7308-7315 (2011); Sobczak et al., “RNA Structure of Trinucleotide Repeats Associated with Human Neurological Diseases,” Nuc. Acids Res. 31:5469-5482 (2003), each of which is hereby incorporated by reference in its entirety), it was reasoned that decreasing the overall G+C content could promote proper folding. Scanning mutagenesis was carried out, mutating every […] and cytosine to adenosine or uracil, respectively. In regions where G and C residues were predicted to form a base pair, both residues were mutated to A and U, to maintain the complementarity. Each of these 35 mutants was synthesized in vitro, and the fraction folded was measured at 25° C. and 42° C. Fluorescence signals that were equal to or greater than Spinach at 25° C. indicated equal or greater percent folded. A higher percentage signal at 42° C. indicated improved thermostability relative to Spinach.

HEK293T cells = assay: Flow cytometry of HEK293T cells expressing 5S rRNA-aptamer fusions with DFHBI-1T; assay type: cell-based; conditions: 5S fusions, HEK293T, 40 μM DFHBI-1T
Method: FIG. 24 illustrates the quantification of the flow cytometry analysis of aptamers expression in mammalian cells. To compare specific aptamers' brightness in mammalian cells, HEK293T cells were transfected with two plasmids: one expressing aptamer (with or without tRNA) fused to 5S rRNA and another expressing mCherry fluorescent protein. Cells were then treated with 40 μM DFHBI-1T and analyzed on FACSAria III instrument in two channels: green (ex=488 nm; em=525±50 nm) and red (ex=561 nm and em=610±20). For quantification, mean fluorescent signal of the non-negative population was calculated and then mean fluorescent signal of the negative population was subtracted from it to assess specific, not background fluorescent signal. Finally, this number was multiplied by the percentage of the non-negative population to provide the total fluorescent signal of the non-negative population. These numbers are plotted on the bar graph above. Where indicated, cells were also pre-treated with 5 mM MgSO4. Error bar indicates robust SD calculated by FlowJo program, used for data analysis.
Imaging 5S-tBroccoli and 5S-t-tdBroccoli: Plasmids were transfected into HEK293T cell using FuGENE HD reagent (Promega) following manufacture's protocol. Cell imaging was carried out as previously described for 5S-Spinach (Paige et al., “RNA Mimics of Green Fluorescent Protein,” Science 333(6042): 642-6 (2011), which is hereby incorporated by reference in its entirety) with DFHBI-1T instead of DFHBI. […]
Flow cytometry was used to quantify average brightness of tRNA. Transfected cells were analyzed in two channels: green (ex=488 nm; em=525±50 nm) and red (ex=561 nm; em=610±20). […] As evidenced from FIG. 14A, 5S-tBroccoli and 5S-tdBroccoli are clearly detectable in the green fluorescence channel and this specific signal appears only upon cells treatment with DFHBI-1T (FIG. 23).

[5] = In-gel imaging of tBroccoli and tdBroccoli (DFHBI-1T / SYBR Gold staining); assay type: biochemical; conditions: gel band intensity, normalized to molecular weight
Method: In-Gel Imaging of Spinach-Containing RNAs: Total bacterial RNA was purified using Trizol LS reagent (Life Technologies) following the manufacturer's protocol. Typically, 200-500 ng of total RNA or 50-100 ng of in vitro transcribed RNA was loaded into a well of precast 6% TBE-Urea Gel (Life Technologies) and ran at 270-300 V in 1×TBE buffer. RiboRuler Low Range RNA Ladder (Thermo Scientific) was used as band size standard.
After the gel was run to completion, the gel was washed 3×5 min with water and then stained for 30 min in 10 μM DFHBI or DFHBI-1T in buffer containing 40 mM HEPES pH 7.4, 100 mM KCl, 1 mM MgCl2. Then gel was imaged using a ChemiDoc MP with 470/30 nm excitation and 532/28 nm emission. Next, to see all the RNA in the sample, the gel was again washed 3×5 min with water followed by staining for 30 min with SYBR Gold (or Green) dye (Life Technologies) diluted 1/10000 in TBE buffer. Then gel was imaged under the same instrument using preset SYBR Gold (or Green) channel (302 nm excitation and 590/110 nm emission). Gel bands intensities were quantified in Image Lab 5.0 software (Bio-Rad). The bacterial 5S rRNA band was used for loading normalization.

B1: Spinach2: RNA aptamer SEQ ID NO: 2; Spinach1.2 variant containing all six mutations (nucleic acid)
chain: GAUGUAACUGAAUGAAAUGGUGAAGGACGGGUCCAGUAGGCUGCUUCGGCAGCCUACUUGUUGAGUAGAGUGUGAGCUCCGUAACUAGUUACAUC
modifications: listed as RNA, chemistry not given here
notes: Spinach1.2 variant containing all six mutations
melting temperature (Tm) [1]: 38±0.4 °C
percentage folded ([2]; 25 °C, in the presence of the tRNA (tRNA^Lys3 scaffold)): 80±6.1%
percentage folded ([2]; 25 °C, no tRNA scaffold): 58±4.8%
percentage folded ([2]; 37 °C, in the presence of the tRNA (tRNA^Lys3 scaffold)): 60±5.4%
percentage folded ([2]; 37 °C, no tRNA scaffold): 37±3.3%
percent of maximal fluorescence in magnesium-free buffer ([3]; 1 μM RNA, 10 μM DFHBI-1T): 11%
magnesium concentration giving maximal fluorescence ([3]; MgCl2 titration): ~1 mM
percent of maximal fluorescence at ~300 μM magnesium ([3]; MgCl2 titration): 50%
fold brighter than Spinach in Escherichia coli (E. coli; 25 °C): 1.4 fold
fold brighter than Spinach in Escherichia coli (E. coli; 37 °C): 2.1 fold
fluorescence retained when fused to the CGG repeat-containing RNA [4]: 80%
fold brighter than Spinach in vitro ([4]; 25 °C): 1.8 fold
fold brighter than Spinach in vitro ([4]; 37 °C): 2.8 fold
brightness of flanked RNA relative to the same aptamer alone ([4]; flanked by 50 nt of RNA on both 5′ and 3′ ends, 0.1 μM RNA): 90%
brightness of flanked Spinach2 versus flanked Spinach ([4]; flanked by 50 nt of RNA on both ends): tenfold brighter than flanked Spinach
fold brighter than the same construct fused to Spinach ([4]; fusion with 5S RNA): 3 fold
fold brighter than the same construct fused to Spinach ([4]; fusion with 7SK RNA): 6 fold
fold brighter than the same construct fused to Spinach ([4]; fusion with (CGG)60 RNA): 20 fold
fluorescence retained by tagged Spinach2 relative to Spinach2 alone ([4]; fusions with 5S, 7SK and (CGG)60 RNA, all cases): more than 70%
Percent Brightness (at 42° C.) ([4]; percent of signal remaining at 42 °C for a given mutant): 41%
Relative Brightness (at 25° C.) ([4]; relative to Spinach, 25 °C): 1.8

B2: tdBroccoli: dBroccoli in tRNA scaffold, SEQ ID NO: 40 (nucleic acid)
chain: GCCCGGATAGCTCAGTCGGTAGAGCAGCGGAGACGGTCGGGTCCATCTGAGACGGTCGGGTCCAGATATTCGTATCTGTCGAGTAGAGTGTGGGCTCAGATGTCGAGTAGAGTGTGGGCTCCGCGGGTCCAGGGTTCAAGTCCCTGTTCGGGCGCCA
modifications: tdBroccoli
brighter than tBroccoli (mean fluorescence intensity of the green population) (HEK293T cells): 70%
fold more fluorescent than tBroccoli [5]: ~1.8 fold
